Our source for the Kd values is PMC10191836 (2023).

The target in the assay is T1, C-terminal region of human LTBP-1 (human, UniProt Q14766 1347-1721).
T1 chain: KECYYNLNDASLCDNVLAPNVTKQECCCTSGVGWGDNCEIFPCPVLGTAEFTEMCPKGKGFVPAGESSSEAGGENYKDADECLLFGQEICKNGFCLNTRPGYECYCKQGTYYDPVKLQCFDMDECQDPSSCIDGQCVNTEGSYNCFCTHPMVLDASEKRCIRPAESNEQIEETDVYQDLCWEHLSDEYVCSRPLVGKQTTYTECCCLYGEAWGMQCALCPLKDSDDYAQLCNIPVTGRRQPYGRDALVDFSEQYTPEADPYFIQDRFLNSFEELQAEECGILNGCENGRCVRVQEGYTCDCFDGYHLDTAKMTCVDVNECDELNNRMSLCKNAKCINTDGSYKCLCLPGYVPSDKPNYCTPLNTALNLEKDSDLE
The assay can be described thus: SPR. For orientation: Surface plasmon resonance follows binding to a sensor surface in real time, without labels.

B1: recombinant human fibrillin-1 N-terminal fragment PF3 with the WMS deletion (domains TB1–PRR–EGF4) (domain or fragment)
chain: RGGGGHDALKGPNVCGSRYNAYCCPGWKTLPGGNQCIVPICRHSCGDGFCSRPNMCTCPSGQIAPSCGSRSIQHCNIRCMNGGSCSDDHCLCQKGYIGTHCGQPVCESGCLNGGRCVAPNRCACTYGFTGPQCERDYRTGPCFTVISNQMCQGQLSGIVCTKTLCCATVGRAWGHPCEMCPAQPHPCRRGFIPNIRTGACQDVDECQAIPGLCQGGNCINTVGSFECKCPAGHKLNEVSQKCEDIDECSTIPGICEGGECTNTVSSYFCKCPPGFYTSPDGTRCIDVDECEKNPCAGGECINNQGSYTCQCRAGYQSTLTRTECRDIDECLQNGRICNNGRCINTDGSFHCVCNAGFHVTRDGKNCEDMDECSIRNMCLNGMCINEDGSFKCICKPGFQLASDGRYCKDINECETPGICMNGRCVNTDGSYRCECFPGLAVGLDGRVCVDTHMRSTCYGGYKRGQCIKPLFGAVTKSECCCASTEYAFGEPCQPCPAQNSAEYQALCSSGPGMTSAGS
modifications: Calcium bound to the cbEGF domains; disulfide bonded. The PF3 end is not printed: it is taken as the end of TB2 (722), because the paper's fragment boundaries are at 330 and 723. The WMS deletion TB1-PRR-EGF4 is taken as 330-489 from domain limits. The N-terminus is assumed to be processed at 44/45.
The molecule B1 showed a Kd of 50.1 nM.

B2: recombinant human fibrillin-1 N-terminal fragment PF3 (domain or fragment)
chain: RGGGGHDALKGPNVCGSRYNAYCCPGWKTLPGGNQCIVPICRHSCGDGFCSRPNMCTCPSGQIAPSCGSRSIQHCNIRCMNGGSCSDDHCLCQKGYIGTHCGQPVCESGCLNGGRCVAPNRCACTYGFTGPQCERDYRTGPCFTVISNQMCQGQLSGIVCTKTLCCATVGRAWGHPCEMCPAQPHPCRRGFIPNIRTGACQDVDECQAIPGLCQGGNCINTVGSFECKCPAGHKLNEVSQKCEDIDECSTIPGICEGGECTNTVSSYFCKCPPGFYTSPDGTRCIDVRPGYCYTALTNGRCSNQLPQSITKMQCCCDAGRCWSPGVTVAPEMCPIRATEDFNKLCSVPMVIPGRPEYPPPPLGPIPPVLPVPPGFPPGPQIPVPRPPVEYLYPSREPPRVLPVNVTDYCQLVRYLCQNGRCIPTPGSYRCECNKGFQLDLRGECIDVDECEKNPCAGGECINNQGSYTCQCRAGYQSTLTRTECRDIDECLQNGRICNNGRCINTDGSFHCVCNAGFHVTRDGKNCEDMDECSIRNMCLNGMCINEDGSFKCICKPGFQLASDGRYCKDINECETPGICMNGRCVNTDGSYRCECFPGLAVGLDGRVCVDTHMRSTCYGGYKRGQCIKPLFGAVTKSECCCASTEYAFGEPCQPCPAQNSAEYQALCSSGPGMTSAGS
Molecule B2 had a Kd of 17.7 nM.

What is called Kd is the equilibrium constant for the complex coming apart. Read a high Kd as weaker binding.
